Columns and labels:
scRad52 = scRad52 (Saccharomyces cerevisiae, UniProt P06778 1-471); assay: FRET
[1] = target: RPA-wt (RPA70-RPA32-RPA14 heterotrimer) (Saccharomyces cerevisiae, UniProt P22336;P26754;P26755 1-621;1-273;1-122); assay: FRET
Sequence of RPA-wt (RPA70-RPA32-RPA14 heterotrimer) (P22336 whole entry, chain 1 of 3): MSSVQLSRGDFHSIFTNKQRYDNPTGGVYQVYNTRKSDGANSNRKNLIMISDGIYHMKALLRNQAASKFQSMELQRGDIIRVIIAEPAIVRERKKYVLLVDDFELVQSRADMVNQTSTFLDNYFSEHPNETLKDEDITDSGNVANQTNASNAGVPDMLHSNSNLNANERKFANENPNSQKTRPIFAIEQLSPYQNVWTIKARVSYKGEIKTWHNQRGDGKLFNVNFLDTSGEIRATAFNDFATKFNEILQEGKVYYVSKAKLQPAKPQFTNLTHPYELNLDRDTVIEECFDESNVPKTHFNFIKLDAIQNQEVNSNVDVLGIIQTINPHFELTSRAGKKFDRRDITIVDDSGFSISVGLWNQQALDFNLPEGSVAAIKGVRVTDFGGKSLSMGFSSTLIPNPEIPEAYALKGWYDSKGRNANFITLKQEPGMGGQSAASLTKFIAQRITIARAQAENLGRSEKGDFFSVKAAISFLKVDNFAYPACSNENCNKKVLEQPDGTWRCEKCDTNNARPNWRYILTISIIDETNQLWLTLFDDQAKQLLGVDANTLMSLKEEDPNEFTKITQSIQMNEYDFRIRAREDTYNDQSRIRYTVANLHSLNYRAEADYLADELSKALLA
Sequence of RPA-wt (RPA70-RPA32-RPA14 heterotrimer) (P26754 whole entry, chain 2 of 3): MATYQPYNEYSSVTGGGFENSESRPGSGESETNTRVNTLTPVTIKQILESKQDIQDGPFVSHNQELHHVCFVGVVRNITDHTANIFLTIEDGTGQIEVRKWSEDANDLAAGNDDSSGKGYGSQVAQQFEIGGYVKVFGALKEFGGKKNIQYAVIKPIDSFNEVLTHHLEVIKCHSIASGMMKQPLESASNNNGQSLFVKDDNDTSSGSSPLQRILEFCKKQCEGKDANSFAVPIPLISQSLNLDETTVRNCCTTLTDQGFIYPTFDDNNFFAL
Sequence of RPA-wt (RPA70-RPA32-RPA14 heterotrimer) (P26755 whole entry, chain 3 of 3): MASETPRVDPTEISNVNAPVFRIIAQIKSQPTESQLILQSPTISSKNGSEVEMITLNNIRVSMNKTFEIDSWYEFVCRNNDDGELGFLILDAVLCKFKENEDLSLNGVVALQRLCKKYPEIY

Sequence of scRad52 (P06778 whole entry): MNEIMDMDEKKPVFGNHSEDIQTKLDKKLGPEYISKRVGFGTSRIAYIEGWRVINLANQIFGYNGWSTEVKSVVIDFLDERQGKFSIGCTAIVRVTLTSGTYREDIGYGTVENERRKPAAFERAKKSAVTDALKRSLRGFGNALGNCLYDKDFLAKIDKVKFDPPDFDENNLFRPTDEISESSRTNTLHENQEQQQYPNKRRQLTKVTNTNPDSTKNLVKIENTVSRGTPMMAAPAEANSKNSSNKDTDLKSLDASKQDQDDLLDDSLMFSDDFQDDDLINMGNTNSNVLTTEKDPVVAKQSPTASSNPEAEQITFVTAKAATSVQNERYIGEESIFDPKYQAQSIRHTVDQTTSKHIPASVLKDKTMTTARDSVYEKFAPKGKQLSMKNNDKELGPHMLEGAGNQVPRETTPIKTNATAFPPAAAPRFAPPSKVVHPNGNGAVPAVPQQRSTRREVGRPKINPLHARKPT

B1: Cy3-dT30-Cy5 (ssDNA)
DNA: TTTTTTTTTTTTTTTTTTTTTTTTTTTTTT
binding result (scRad52): binds | binding result [1]: binds
